Measurements published in US20170173114A1, “METHODS AND COMPOSITIONS FOR INDUCTION OF UCP1 EXPRESSION” (Joslin Diabetes Center, Inc., priority 2014, published 2017).
Entries after “also recorded” stand apart in the source; their conditions may differ.

Tests used:
RIP140 (NRIP1) = assay: RIP140 mRNA expression in brown and white preadipocytes; assay type: cell-based; details: 200 ng/mL, three or seven days
Procedure: (§1) Total RNA was isolated with QIAzol lysis reagent (Qiagen, Valencia, Calif.) and purified by RNeasy Mini columns (Qiagen) following the manufacture's instructions. cDNA was prepared from total RNA using the Advantage RT-PCR kit (BD Biosciences, Palo Alto, Calif.) according to manufacturer's instructions. Diluted cDNA was used in a PCR reaction with SYBR Green Master Mix (Applied Biosystems, Foster City, Calif.) and primers specifically designed for detection of the gene of interest. PCR reactions were run in duplicate for each sample and quantitated in the ABI Sequence Detection System (Applied Biosystems). Data were expressed as arbitrary units after normalization to levels of expression of internal controls for each sample. Sequences of primers for specific genes are each obtained from the published literature or designed using publically available gene sequence databases. Unless otherwise indicated, gene expression data described in the examples below was obtained using QPCR.
RIP140 directs DNA methylation and interacts with nuclear receptors to silence UCP1 expression and suppress mitochondrial biogenesis in white adipocytes (Kiskinis E. et al., EMBO J. 26:4831-4840, 2007; Powelka A. M. et al., J. Clin. Invest. 116:125-136, 2006; Wang H. et al., Mol. Cell. Biol. 28:2187-2200, 2008). […]

UCP1 [1] = assay: High-throughput screen of secreted proteins for UCP1 mRNA induction in committed brown preadipocytes; assay type: cell-based, murine; details: after induction media; secreted protein library
Procedure: To identify protein(s) that can induce UCP1 expression in brown preadipocytes, a high-throughput screen was performed using a protein library containing more than 5,000 mammalian secreted proteins (Lin H. et al., Science 320:807-811, 2008) in an immortalized murine brown preadipocyte cell line (Klein J. et al., J. Biol. Chem. 274:34795-34802, 1999; Tseng Y. H. et al., Nat. Cell. Biol. 7:601-611, 2005). The screen included applying induction media to brown preadipocyte cells, resulting in committed brown preadipocytes.

UCP1 [2] = assay: UCP1 mRNA expression in C2C12 myogenic progenitors; assay type: cell-based; details: three days
UCP1 [3] = assay: UCP1 mRNA expression (Q-RT-PCR) in WT-1 brown preadipocytes; assay type: cell-based, murine
Procedure: as §1
The effect of FGF6 on differentiation of WT-1 murine brown preadipocytes was also examined. WT-1 cells can be induced to undergo brown adipocyte differentiation, characterized by lipid accumulation and expression of adipogenic and brown fat markers, as described above (Klein et al. (1999) J Biol Chem 274:34795; Tseng et al. (2005) Nat Cell Biol 7:601). WT-1 cells were treated with FGF6 in growth media (DMEM+10% FBS), a vehicle control (“control” or “C” referred to in FIGS. 3A-D), or induction media (“induction” or “I” referred to in FIGS. 3A-D) as described above for seven days. Following the treatment, cells were examined for the color of the culture media in combination with oil Red O staining, expression of adipogenic markers, expression of brown fat markers, immunofluorescent staining of cells with UCP1 and DPAI, and Western blot analysis to determine the presence of UCP1 and β-tubulin. The results are described in FIGS. 3A to 3D.
UCP1 mRNA expression in brown adipocyte cells was determined at FGF6 concentrations ranging from 0 to 300 ng/ml in the absence of induction cocktail.
In order to determine the length of time necessary to induce UCP1 expression upon exposure to of cells to FGF6, an experiment was performed whereby FGF6 was administered to brown preadipocytes at a concentration of 200 ng/ml and UCP1 expression was determined. FGF21 and a control were also used in the time course experiment. FGF21, a member of the endocrine FGF ligands that has been implicated in the browning of white fat (Fisher F. M. et al., Genes Dev. 26:271-281, 2012). […] FGF6 could acutely induce a significant increase of UCP1 expression as early as 4 hours after a 200 ng/ml dose, as described in FIG. 4B. At 24 hours, the fold-induction of UCP1 mRNA by FGF6 reached 700-fold higher than the untreated cells, as described in FIG. 4B.
To assess FGF6's role in the regulation of mitochondrial activity, FGF6 was stably expressed in WT-1 brown preadipocytes and 3T3-F442A white preadipocytes. Stable cells were generated by viral infection followed by drug selection.
FGF2, FGF6 and FGF9 were used at a dosage of 50 ng/mL, 100 ng/mL, 200 ng/mL or 300 ng/mL. FGF21 was used at the dosage of 50 ng/ml and 500 ng/mL. The concentration of BMP7 was 3.3 nM. RNA was isolated and UCP1 and PPARγ expression levels were evaluated by quantitative reverse transcription polymerase chain reaction (Q-RT-PCR) analysis after 24 hours (i.e., 1 day) (FIG. 14A), 2 days (FIG. 14B), 5 days (FIG. 14C) and 7 days (FIG. 14D) of treatment. All experiments were performed triplicate and the data are presented as mean+/−SEM.
FGF2, FGF6 and FGF9 were used at a dosage of 200 ng/mL. FGF21 was used at a dosage of 500 ng/mL. The concentration of BMP7 was 3.3 nM. mRNA was isolated and UCP1 and PPARγ expression levels were evaluated by quantitative reverse transcription polymerase chain reaction (Q-RT-PCR) analysis after 24 hours (i.e., 1 day), 2 days, 5 days and 7 days of treatment (FIG. 15). […]

[4] = 0 to 300 ng/ml, absence of induction cocktail, day 7

B1: FGF6: fibroblast growth factor 6; recombinant human FGF from R&D Systems, or mouse FGF6 cDNA overexpressed by lentiviral vector (protein)
chain: KRQRRLYCNVGIGFHLQVLPDGRISGTHEENPYSLLEISTVERGVVSLFGVRSALFVAMNSKGRLYATPSFQEECKFRETLLPNNYNAYESDLYQGTYIALSKYGRVKRGSKVSPIMTVTHFLPRI
reduction of RIP140 mRNA expression (RIP140 (NRIP1)): 50-80% | UCP1 mRNA expression in committed brown preadipocytes (screen) (UCP1 [1]): induced UCP1 mRNA expression | UCP1 mRNA expression in C2C12 myogenic progenitors (UCP1 [2]): neither FGF6 nor FGF21 induced UCP1 mRNA expression; also recorded: no induction of UCP1 | FGF6 concentration at which UCP1 gene expression plateaued (UCP1 [3]; [4]): about 200 ng/ml | UCP1 gene expression, dose response (UCP1 [3]; [4]): dose-dependent manner | earliest time of significant increase of UCP1 expression (UCP1 [3]; 200 ng/ml): 4 h | fold-induction of UCP1 mRNA over untreated cells (UCP1 [3]; 200 ng/ml, 24 hours): 700 fold | UCP1 levels with prolonged exposure (UCP1 [3]; 200 ng/ml, time course): continued to rise | UCP1 expression level (UCP1 [3]; 50-300 ng/mL with insulin and T3, 1, 2, 5 and 7 days, dose-responsive): very high levels of UCP1 | UCP1 expression level, time course (UCP1 [3]; FGF2, FGF6, FGF9 200 ng/mL, FGF21 500 ng/mL, with insulin and T3, 1, 2, 5, 7 days): very high levels of UCP1 | UCP1 mRNA expression (UCP1 [3]; WT-1, 24 hours, vs vehicle): significantly induced | UCP1 mRNA expression (UCP1 [3]; WT-1, growth media, seven days, vs control or induction media): significantly increased; also recorded: extremely high levels | UCP1 expression over basal level (UCP1 [3]; constitutive overexpression of FGF6 in WT-1): greatly increased; also recorded: marked increases
